In US10052415B2, “Tropoelastin for promoting endothelial cell adhesion or migration” (University of Utah Research Foundation, priority 2005, dated 2018):

Test system: A2058 human melanoma cells
Assay: Boyden chamber migration assay, A2058 cells
Format: cell-based
Conditions: FIG. 5
Method: Briefly, 16 h before the assay, 70% confluent 75 cm^2 flasks of human melanoma A2058 cell (ATCC, passage 3-12) or human aortic endothelial cells (HAEC; Cambrex, passage 4-7) were kept in basal media (dMEM+0.1% BSA, or EBM-2+1% FCS, respectively). Cells were lifted with 0.25% Trypsin/1 mM EDTA, diluted in 0.5% BSA (dMEM) and washed 3 times in basal media (dMEM+0.1% BSA) or (EBM-2+0.1% FCS,) and recovered in suspension at working density (2×10^6/ml for A2058 or 1.5×10^6 HAEC) for 1 h at 37° C. (5% CO2). For migration-inhibition assays, the cells were preincubated during the recovery period for 30 minutes in 25 μg/ml anti-integrin antibodies (Chemicon, Temecula, Calif.) or control IgG (Jackson ImmunoResearch, Inc.). All migration assays were performed in triplicate in a 48-well Boyden chamber apparatus (NeuroProbe, Cabin John, Md.). The recovered cells were added to the bottom chambers in a volume of 30 μl. The wells were overlayed with an 8 μm-pore polycarbonate membrane (NeuroProbe, Cabin John, Md.) and coated with 100 μg/ml Rat tail collagen (Trevigen, Gaithersburg, Md.) for A2058 cells or acetylated 1% gelatin from porcine skin (Sigma, St. Louis, Mo.) for HAEC. The apparatus was assembled and stored inverted at 37° C. (5 CO2) for a 2 h adhesion-period. […] Readings represent the number of cells migrating through the membrane (the sum of two high power X 20 fields/well, averaged for each sextuplicate-well set).

B1: tropoelastin: recombinant human tropoelastin lacking native signal sequence, 10× His tag and Factor Xa site on N-terminus, 706 amino acid residues (SEQ ID NO: 4) (protein, listed as Homo sapiens)
chain: MGHHHHHHHHHHSSGGIEGRGGVPGAIPGGVPGGVFYPGAGLGALGGGALGPGGKPLKPVPGGLAGAGLGAGLGAFPAVTFPGALVPGGVADAAAAYKAAKAGAGLGGVPGVGGLGVSAGAVVPQPGAGVKPGKVPGVGLPGVYPGGVLPGARFPGVGVLPGVPTGAGVKPKAPGVGGAFAGIPGVGPFGGPQPGVPLGYPIKAPKLPGGYGLPYTTGKLPYGYGPGGVAGAAGKAGYPTGTGVGPQAAAAAAAKAAAKFGAGAAGVLPGVGGAGVPGVPGAIPGIGGIAGVGTPAAAAAAAAAAKAAKYGAAAGLVPGGPGFGPGVVGVPGAGVPGVGVPGAGIPVVPGAGIPGAAVPGVVSPEAAAKAAAKAAKYGARPGVGVGGIPTYGVGAGGFPGFGVGVGGIPGVAGVPGVGGVPGVGGVPGVGISPEAQAAAAAKAAKYGVGTPAAAAAKAAAKAAQFALLNLAGLVPGVGVAPGVGVAPGVGVAPGVGLAPGVGVAPGVGVAPGVGVAPGIGPGGVAAAAKSAAKVAAKAQLRAAAGLGAGIPGLGVGVGVPGLGVGAGVPGLGVGAGVPGFGAVPGALAAAKAAKYGAAVPGVLGGLGALGGVGIPGGVVGAGPAAAAAAAKAAAKAAQFGLVGAAGLGGLGVGGLGVPGVGGLGGIPPAAAAKAAKYGVAARPGFGLSPIFPGGACLGKACGRKRK
With B1 the “level of A2058 migration compared among tropoelastin and fragments” value was “promoted migration of A2058 cell at comparable levels”.
